Ends that are not written are not given here.
Legend:
Type in all cases: cell-based
Staphylococcus aureus [1] = assay: Antimicrobial activity, growth inhibition at a single concentration (colony count); settings: 50 μl of 40 μg/ml polypeptide added to 450 μl of 5,000 CFU/ml suspension in 10 mM phosphate buffer pH 7.0; 37° C. 1 hr
Description: (§1) In addition, Staphylococcsii aureus was suspended in 10 mM phosphate buffer, pH 7.0, at a concentration of 5,000 CFU/ml and 450 μl of the suspension was mixed with 50 μl each of polypeptide fraction T3 (polypeptide of [Formula 4]), T6 (polypeptide of [Formula 5]) (SEQ ID NO:4), and a polypeptide obtained by Example 1 each having a concentration of 40 μg/ml, and as a control 10 mM phosphate buffer, pH 7.0. The mixtures were incubated at 37° C. for 1 hr. Then, 100 μl of incubated mixture was inoculated in an agar medium, cultured at 37° C. for 12 hrs. and the number of colonies were counted with naked eye.

Escherichia coli [2] = assay: as above; settings: 50 μl of 40 μg/ml polypeptide added to 450 μl of 10,000 CFU/ml suspension in 10 mM phosphate buffer pH 7.0; 37° C. 1 hr
Description: as §1, with “Escherichia coli” for “In addition, Staphylococcsii aureus”, “10,000” for “5,000”, “4]) (SEQ ID NO:3),” for “4]),”

Staphylococcus aureus [3] = assay: Determination of antimicrobial activity (colony count after 1 hr incubation in hypotonic buffer); settings: 10 mM phosphate buffer pH 7.0 (hypotonic), 37° C. 1 hr, then agar culture 12 hrs
Description: (§2) Various microorganisms shown in Table 3 were suspended in 10 mM phosphate buffer, pH 7.0 (hypotonic solution). In 900 μl of 5,000-10,000 CFU/ml suspension, 100 μl of 2-fold serial diluted polypeptide solution at a concentration of 20 μg/ml obtained by Example 1 was added and incubated at 37° C. for 1 hr. Then, 100 μl of incubated mixture was inoculated in an agar medium, cultured at 37° C. for 12 hrs. and the number of colonies was counted with naked eye (see Infections and Immunity, 42, 10-14 (1983)). CFU means colony forming unit.

[4] = test system: Salmonella typhimurium LT2(S); assay: as above; settings: 10 mM phosphate buffer pH 7.0 (hypotonic), 37° C. 1 hr, then agar culture 12 hrs
Description: as §2

Klebsiella pneumoniae = assay: as above; settings: 10 mM phosphate buffer pH 7.0 (hypotonic), 37° C. 1 hr, then agar culture 12 hrs
Description: as §2

S. minnesota Re = assay: as above; settings: 10 mM phosphate buffer pH 7.0 (hypotonic), 37° C. 1 hr, then agar culture 12 hrs
Description: as §2

Escherichia coli [5] = assay: as above; settings: 10 mM phosphate buffer pH 7.0 (hypotonic), 37° C. 1 hr, then agar culture 12 hrs
Description: as §2

Candida albicans = assay: as above; settings: 10 mM phosphate buffer pH 7.0 (hypotonic), 37° C. 1 hr, then agar culture 12 hrs
Description: as §2

Molecule	inhibited the growth of Staphylococcus aureus at a rate of (Staphylococcus aureus [1])	inhibited the growth of Escherichia coli at a rate of (Escherichia coli [2])	IC50 (μg/ml) (hypotension) (Staphylococcus aureus [3]) [µg/mL]	IC50 (μg/ml) (hypotension) [4] [µg/mL]	IC50 (μg/ml) (hypotension) (Klebsiella pneumoniae) [µg/mL]	IC50 (μg/ml) (hypotension) (S. minnesota Re) [µg/mL]	IC50 in hypotonic buffer (Escherichia coli [5]) [µg/mL]	IC50 (μg/ml) (hypotension) (Candida albicans) [µg/mL]
T3: Trypsin degradation fraction of the Example 1 polypeptide, eluted at 27 min; 42 residues, C-terminal defensin-like part (ASSDNHSCAGNRGWCRSKCFRHEYVDTYYSAVCGRYFCCRSR; not fully specified (bridges); cysteine pairing not given here)	about 30%	about 90%	–	–	–	–	–	–
polypeptide obtained by Example 1: Purified S5 fraction polypeptide from small granules of horseshoe crab hemocytes; 79 amino acids, about 8,200 by SDS-PAGE (protein) NPLIPAIYIGATVGPSVWAYLVALVGAAAVTAANIRRASSDNHSCAGNRGWCRSKCFRHEYVDTYYSAVCGRYFCCRSR	almost completely	≥ 95%	< 2.5	20	< 1.3	< 0.6	2.5	10 to 20

— US5965725A, “Polypeptides, and preparation and DNA encoding thereof” (Seikagaku Kogyo Kabushiki Kaisha, priority 1994, dated 1999)
